Laboratory results from article PMC8748767 (Nature Communications, 2022).

B1: Tyrosine hydroxylase deletion mutant with the first 35 residues deleted (THNΔ35) (domain or fragment)
chain: not shown
notes: human tyrosine hydroxylase isoform TH1 with the first 35 residues deleted; numbers count on: isoform TH1; also called THΔN35; THΔ35; source: recombinant, construct derived from pETMBP1a/TH (Genscript), expressed and purified essentially as TH; not shown: His, N-terminal, cleaved; MBP, N-terminal, cleaved
B2: Tyrosine hydroxylase deletion mutant with the entire N-terminal removed (THNΔ70) (domain or fragment)
chain: not shown
notes: human tyrosine hydroxylase isoform TH1 with the entire N-terminal tail (residues 1-70) removed; numbers count on: isoform TH1; also called THΔN70; source: recombinant, construct derived from pETMBP1a/TH (Genscript), expressed and purified essentially as TH; not shown: His, N-terminal, cleaved; MBP, N-terminal, cleaved
B3: Tyrosine hydroxylase deletion mutant lacking the N-terminal 43 residues (THNΔ43) (domain or fragment)
chain: not shown
notes: human tyrosine hydroxylase isoform TH1 lacking the N-terminal 43 residues; numbers count on: isoform TH1; source: recombinant, construct derived from pETMBP1a/TH (Genscript), expressed and purified essentially as TH; not shown: His, N-terminal, cleaved; MBP, N-terminal, cleaved

Target: the molecule itself
Experiment: SEC; preparative size-exclusion chromatography, HiLoad Superdex 200 prep grade (1.6 cm × 60 cm), 20 mM Na-Hepes pH 7, 200 mM NaCl

Q: Which “stoichiometry N” value does the source give for B1 here?
A: 4

Q: Which “stoichiometry N” value does the source give for B2 here?
A: 4

Q: Which “stoichiometry N” value does the source give for B3 here?
A: 4
